Experimental findings from article doi:10.1101/2020.12.08.416958 are described below.

This assay addresses L-lactate oxidase (UniProt Q44467). Description: ITC. (In general: In ITC the heat of successive injections is recorded.)
Sequence of UniProt Q44467 (Q44467 whole entry): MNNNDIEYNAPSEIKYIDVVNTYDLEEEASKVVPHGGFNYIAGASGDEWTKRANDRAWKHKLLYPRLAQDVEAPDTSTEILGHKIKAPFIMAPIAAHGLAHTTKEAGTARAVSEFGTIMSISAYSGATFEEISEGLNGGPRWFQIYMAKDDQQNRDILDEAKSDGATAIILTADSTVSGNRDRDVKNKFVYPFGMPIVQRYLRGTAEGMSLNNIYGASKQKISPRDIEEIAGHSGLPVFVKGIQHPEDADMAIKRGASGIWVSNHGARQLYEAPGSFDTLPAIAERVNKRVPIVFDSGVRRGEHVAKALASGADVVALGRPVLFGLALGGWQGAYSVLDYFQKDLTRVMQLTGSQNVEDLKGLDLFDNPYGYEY

On to “Poly-L-lysine hydrobromide (molecular weight 4,000-15,000 Da) (peptide)”, for which the maximum enthalpy was 0.7 kcal/mol.
